The values that follow come from the supplement of paper PMC10567573.

± gives the standard deviation.

This series in a line: protein stability index of a GFP-peptide fusion (GPS, HEK-293T) (PSI 1-6); higher = more stable. Conditions: c terminus: a fixed tail appended.
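Also: 24-mer peptide tiles fused after GFP, lentivirally expressed, FACS-sorted into six equal bins by GFP/DsRed ratio, decoded by Illumina sequencing, PSI is the read-weighted mean bin number.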

For DVSSTEEFLELSPQKLKEVISLEK [GAN], the protein stability index turned out to be 4.88 ± 0.18 (treatment: DMSO) and 4.87 ± 0.16 (treatment: MLN4924 1 uM, 8 h).

Sequence DYEFRVVAVNNIGRGPPSEPVLTQ [PTPRD] displayed a protein stability index (treatment: DMSO) of 3.08 ± 0.16 and a protein stability index (treatment: MLN4924 1 uM, 8 h) of 3.04 ± 0.47.

As for DYSPYYKTIEELRDKILTATIENN [KRT13], the protein stability index was 3.17 ± 0.15 (treatment: DMSO) and 3.11 ± 0.16 (treatment: MLN4924 1 uM, 8 h).

For the sequence DYVDRGYYSVETVTLLVALKVRYR [PPP2CA], the protein stability index turned out to be 2.74 ± 0.46 (treatment: DMSO) and 2.47 ± 0.6 (treatment: MLN4924 1 uM, 8 h).

EAAEPPKTPPSSCDSTNAAIAKQA [KMT5A]: the protein stability index runs as follows: (treatment: DMSO) 5.42 ± 0.29; (treatment: MLN4924 1 uM, 8 h) 5.34 ± 0.13.

For EAAKQMRSRGKVLKTKDGKLPFCA [CPOX], the protein stability index by setting is: (treatment: DMSO) 3.89 ± 0.4; (treatment: MLN4924 1 uM, 8 h) 3.68 ± 0.23.

Turning to EALCEEDLLLWIQKHTEVETVDLV [DENND6A], the protein stability index is, setting by setting: (treatment: DMSO) 3.37 ± 0.25; (treatment: MLN4924 1 uM, 8 h) 3.08 ± 0.27.

As for EASAEGPRAVFVLLEERRPADSAQ [TFE3], the protein stability index is, setting by setting: (treatment: DMSO) 3.93 ± 0.28; (treatment: MLN4924 1 uM, 8 h) 3.95 ± 0.44.

Regarding EASGYVDRDMFFKICESLNVPVDD [EFHC1], the protein stability index by setting is: (treatment: DMSO) 3.95 ± 0.29; (treatment: MLN4924 1 uM, 8 h) 4.17 ± 0.44.

As to ECMLLVFGIDVKEVDPTGHSFVLV [MAGEA10], the protein stability index turned out to be 2.82 ± 0.44 (treatment: DMSO) and 2.8 ± 0.66 (treatment: MLN4924 1 uM, 8 h).

Consider ECVVAMHQAQLISKIPHILKEMYD [EIF5], for which the protein stability index is, setting by setting: (treatment: DMSO) 2.78 ± 0.38; (treatment: MLN4924 1 uM, 8 h) 2.32 ± 0.5.

Consider EDLTAKRKRMKMDKTCSKTKNKSK [FAM9B], for which the protein stability index stood at 4.98 ± 0.43 (treatment: DMSO) and 5.16 ± 0.34 (treatment: MLN4924 1 uM, 8 h).

For EDSCAELGESKEHMESRMVTETEE [SDE2], the protein stability index is, setting by setting: (treatment: DMSO) 5.7 ± 0.18; (treatment: MLN4924 1 uM, 8 h) 5.63 ± 0.3.

EDSSRDIREALHELLCCTNVSTKE [INTS4]: the protein stability index is, setting by setting: (treatment: DMSO) 3.75 ± 0.31; (treatment: MLN4924 1 uM, 8 h) 3.98 ± 0.25.

With EDTTEEAQRRRMDEISDHAKVLTL [EIF5], the protein stability index reads like this: (treatment: DMSO) 5.24 ± 0.11; (treatment: MLN4924 1 uM, 8 h) 5.18 ± 0.2.

Turning to EEAKGLLDKVKDGGYRPAEDKIFP [ZBED1], the protein stability index is, setting by setting: (treatment: DMSO) 4.84 ± 0.3; (treatment: MLN4924 1 uM, 8 h) 4.78 ± 0.41.

Turning to EEAVILLEDLERELDEPQHEMVAH [ZSCAN9], the protein stability index came out at 4.14 ± 0.6 (treatment: DMSO) and 4.2 ± 0.34 (treatment: MLN4924 1 uM, 8 h).

As to EEDFDSEQLSVLASCLQELFKAHF [INTS3], the protein stability index runs as follows: (treatment: DMSO) 2.24 ± 0.078; (treatment: MLN4924 1 uM, 8 h) 2.49 ± 0.29.

Turning to EELYKEIDGVATTRYSVAGLSPYS [PTPRD], the protein stability index worked out at 3.14 ± 0.18 (treatment: DMSO) and 3.36 ± 0.22 (treatment: MLN4924 1 uM, 8 h).

In turn, EEPNGQIQGYRVYYTMDPTQHVNN [PTPRD] gave a protein stability index (treatment: DMSO) of 3.18 ± 0.19 and a protein stability index (treatment: MLN4924 1 uM, 8 h) of 3.17 ± 0.34.

As to EESILERVQQHIESKLLGSNSSRM [MLH1], the protein stability index was 3.96 ± 0.15 (treatment: DMSO) and 3.92 ± 0.11 (treatment: MLN4924 1 uM, 8 h).

For the sequence EGFQRCDVARQLGKNNEFSRLVAG [PSD2], the protein stability index amounted to 3.22 ± 0.25 (treatment: DMSO) and 3.58 ± 0.23 (treatment: MLN4924 1 uM, 8 h).

Consider EGGEGEKEGEGEVGGEAVEVEEVE [TRIM55], for which the protein stability index by setting is: (treatment: DMSO) 5.66 ± 0.35; (treatment: MLN4924 1 uM, 8 h) 5.41 ± 0.29.

On to EGHQEGLVELPASFRELLTFFCTN [SCNN1D], for which the protein stability index was 2.73 ± 0.36 (treatment: DMSO) and 2.71 ± 0.34 (treatment: MLN4924 1 uM, 8 h).

Take EGLRRRRGREAGPPQPMVPLAVEN [PBXIP1]: the protein stability index is 5 ± 0.49 (treatment: DMSO) and 4.98 ± 0.23 (treatment: MLN4924 1 uM, 8 h).

On to EGPDLVPAALGSLTTAQIARSVWR [HES6], for which the protein stability index came out at 3.33 ± 0.39 (treatment: DMSO) and 3.59 ± 0.34 (treatment: MLN4924 1 uM, 8 h).

Consider EGQHPAQLRSDVCTPGGTTIYGLH [PYCR3], for which the protein stability index reads like this: (treatment: DMSO) 3.8 ± 0.35; (treatment: MLN4924 1 uM, 8 h) 3.92 ± 0.39.

With EKKKAHYRQSSFPHCSDLMPSGSE [KCNA4], the protein stability index came to 4.2 ± 0.2 (treatment: DMSO) and 4.31 ± 0.17 (treatment: MLN4924 1 uM, 8 h).

For EKPYKCPECGEIFAHSSNLLRHQR [ZNF263], the protein stability index reads like this: (treatment: DMSO) 3.07 ± 0.86; (treatment: MLN4924 1 uM, 8 h) 3.76 ± 0.93.

Take EKRPLFLAPDFDRWLDESDAEMEL [HACD3]: the protein stability index runs as follows: (treatment: DMSO) 4.45 ± 0.11; (treatment: MLN4924 1 uM, 8 h) 4.64 ± 0.068.

Turning to ELERKLREVMESAVGNSSGSGQNE [FBXO28], the protein stability index runs as follows: (treatment: DMSO) 4.11 ± 0.19; (treatment: MLN4924 1 uM, 8 h) 4.24 ± 0.38.

ELESLSAIEAELEKVAHQLQALRR [CHGA] yielded a protein stability index (treatment: DMSO) of 4.74 ± 0.22 and a protein stability index (treatment: MLN4924 1 uM, 8 h) of 4.97 ± 0.4.

In the case of ELFHTIDTHNTNNLDTEELCEYFS [NECAB1], the protein stability index reads like this: (treatment: DMSO) 3.41 ± 0.28; (treatment: MLN4924 1 uM, 8 h) 3.47 ± 0.1.

ELGVIFYNCSCLVLDLQRIFALYS [PLD5] gave a protein stability index (treatment: DMSO) of 3.24 ± 0.39 and a protein stability index (treatment: MLN4924 1 uM, 8 h) of 3.29 ± 1.

As to ELKKAAYDIEVNTRRAQADLAYQL [FLOT1], the protein stability index came to 3.2 ± 0.32 (treatment: DMSO) and 3.3 ± 0.32 (treatment: MLN4924 1 uM, 8 h).

On to ELQRTKQEVLSLRRENSTLDVECH [SASS6], for which the protein stability index stood at 4.02 ± 0.33 (treatment: DMSO) and 3.93 ± 0.2 (treatment: MLN4924 1 uM, 8 h).
